Measured values as given in the RNAGym collection of RNA variant scans (doi:10.1073/pnas.2313332121).

B1: TPR t1 (parent)
chain: GACCAAUCUGCCCUCAGAGCUCGAGAACAUCUUCGGAUGCAGAGGAGGCAGGCUUCGGUGGCGCGAUAGCGCCAACGUCCUCAACCUCCAAUGCAUCCCACCACAUGAUGAUGCCUGAAGAGCCUUGGUUUUUUG

Variants of: B1
Test: polymerase ribozyme fitness, log enrichment relative to wild type (log ratio); higher = more active; in vitro selection for triplet polymerase activity
Procedure, shortened: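 Only genotypes with ≥10 input reads and ≥1 read per output were kept after Illumina sequencing of input and output libraries. These libraries were PCR-built, transcribed mutants of each subunit of a heterodimeric triplet polymerase ribozyme, each put through one triplicate in vitro selection round with frozen incubation at −7 °C, gel excision of extended constructs, streptavidin-bead capture and RT-PCR. Fitness is a logarithmic ratio of genotype enrichment to wild-type enrichment, from inverse-variance-weighted replicate averages, with the logarithm in base 2.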

Variant | polymerase ribozyme fitness (log ratio)
G117C G120A | -3.91
C8U C13U G39A C80U C102A | -2.98
G10U C15A G61U A75C G117A | -3.07
G52A C56U G93A | -0.382
C13G G39A G113U C114A | -4.57
G10U G19A G36C C79U | -3.73
A18G A43U G71A | -4.88
C11G G17C C53U C79U U129G | -3.84
G57A G71U C89U | -1.34
C56A U78G | -0.153
C12A A37G | -0.967
U59C C72U | -0.715
C49U G77A C123G | 1.03
G60A C82A G113A | -0.999
C64G G120C | -4.47
C101G U112A | 0.152
G45C U106A | -1.34
G63U G117C | -4.05
C8G C40A C49G G52U G120C U132A | 0.561
G19C G42A G120U | -2.23
C49U C73U U81G U96C | -4.51

Variant | polymerase ribozyme fitness (log ratio)
C73G A118U | -0.0973
C8G C85U C86G | -0.513
A6U G48U C89A A105U | -6.02
C62G G120C | -0.544
C15U U133A | -1.79
G51U C101U G120U | -4.49
C79U G107A | -4.41
C31U C53G C124A | -3.5
C40A G110A U116A | -5.12
C72G A84C | -0.56
U7C A18C G42U G77U A84U | -2.98
A68C U78G U112A | -7.68
C8A A75G G117A A121U | 1.31
G60A A105C C115U | -5.65
A46C A50U C72A | -1.15
A46U C80U A103U A121U G135A | -5.5
C62G A100U G120U | -3.32
A5G C13U G42U C76A | -2.01
C73G G120C U130A | -0.0194
G35C G61A U106G U112A | -3.75
C49A C104G | -6.42

Variant | polymerase ribozyme fitness (log ratio)
A84U C102U | -2
C49A G61U A83C U129C | -0.881
G61C G110A | -3.32
U92G U125A | -2.96
G107U A121U U132A | -2.5
C8A G71U A84C A95G U109A U126A | -5.61
C49U G110C | -5.17
G51A G69U C88U G93A U109G U133C | -4.55
G10U G110U C114U | -3.42
G23A C28G G69U U78G C79U U112C G128U U133G | -5.41
A37U A90G C97A | -5.5
G39U G45U G48A C73A C79G G113A | -5.88
C8G A50U G61U | 0.00345
C40A C56G A105C U106G | -4.78
C40U G117U | -1.71
C13A C28U | -3.53
C8A A68G C114A | -4.66
A18C A95U | -3.68
C22G U38A G61U C124U | -3.08
C31U G60A G61A C123G | -6.05
C72G G120A | 0.223

Variant | polymerase ribozyme fitness (log ratio)
A2U A16U C72G C86U | -4.45
G36U C56A U132A | -1.83
A5C A43C G45A C56A A91G G113A | -4.37
G71A G135A | -1.21
C40A C49A C86G | -3.35
C8G A41G G58C A83G G110U A121G | -4.41
G10C A50G G69U C89A A121U | 0.925
A43U C53A U129A | -4.05
C8G A26U G52A G63C | -4.29
C8G U109A | -4.06
A100C U130C | -0.362
C34A C73G U106A | -4.25
C56A G69A A84G A121C | -3.85
G57C G69A | -3
G44C C62A U132C | -2.12
C73U G113U | -3.18
C8A A43C | -1.76
G48A C123A G135A | 0.126
A100U G117U | -3.66
C12A U92A C97G C123G G128U | -6.73
